Results on 2 molecules are retold here after patent US20200024338A1 (Stanford University, published 2020).

The target of test [1] is T1, Human ZNRF3 ECD (amino acids 56-219) (human, UniProt Q9ULT6 56-219, site-specifically biotinylated by BirA ligase at the C-terminal biotin-acceptor peptide).
T1 construct: range 56-219; The methods say that ZNRF3 means the ECD only; also called ZNR3 ECD; biotinylated ZNRF3
T1 sequence: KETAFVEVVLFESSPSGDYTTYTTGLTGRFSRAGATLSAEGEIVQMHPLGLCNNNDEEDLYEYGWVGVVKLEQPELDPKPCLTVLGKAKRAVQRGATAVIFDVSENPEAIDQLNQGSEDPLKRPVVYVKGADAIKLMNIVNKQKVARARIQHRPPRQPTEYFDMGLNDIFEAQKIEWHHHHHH
Briefly: yeast surface display titration: scFv-displaying yeast with increasing ZNRF3, flow cytometry, normalized MFI. The procedure:
(§1) Plasmids from the final round of selection were isolated using the Zymoprep Yeast Plasmid Miniprep Kit (Zymo Research) and sequenced. These plasmids were electroporated into S. cerevisiae EBY100 yeast and recovered in SDCAA selection media, followed by induction in SGCAA induction media. The individual scFv-transformed yeast were incubated with increasing concentration of biotinylated RNF43/ZNRF3. These yeast were stained with SA-647 and Myc-488 and fluorescence was monitored by flow cytometry. The data were analyzed by GraphPad Prism 7 and the highest affinity clones were identified for subsequent experiments.
Background: A flow cytometer gives signals particle by particle.

Test [2] concerns the target T2, Human RNF43 Extracellular Domain (ECD) (amino acids 24-197) (human, UniProt Q68DV7 24-197, site-specifically biotinylated by BirA ligase at the C-terminal biotin-acceptor peptide).
T2 construct: range 24-197; The methods say that RNF43 means the ECD only; also called RNF43 ECD; biotinylated RNF43
T2 sequence: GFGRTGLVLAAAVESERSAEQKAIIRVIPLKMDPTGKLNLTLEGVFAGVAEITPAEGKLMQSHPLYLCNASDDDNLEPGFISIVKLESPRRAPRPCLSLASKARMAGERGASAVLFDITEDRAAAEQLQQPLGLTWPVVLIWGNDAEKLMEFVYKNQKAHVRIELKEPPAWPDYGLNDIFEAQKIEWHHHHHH
Briefly: yeast surface display titration: scFv-displaying yeast with increasing RNF43, flow cytometry, normalized MFI. The protocol: as §1

B1: Z6 scFv (scFv)
scFv: ASQVQLVQSGAEVKNPGASVKVSCKASGYAFTSYGISWVRQAPGQGLEWMGWISAYTRNTNYAQKFQGRVTLTTDTSTSTAYMELRSLRSDDTAIYYCARDARYSLGVGAFDVWGQGTMVTVSSGILGSGGGGSGGGGSGGGGSETTLTQSPAFMSATPGDKVSISCKASRDIDDDLNWYQQKPGEAAISIIQEATTLVPGIPPRFSGSGYGTDFTLTINNIESEDAAYYFCLQHDDVPYTFGQGTKLEIKSGIL
By EC50 is commonly meant the concentration needed to bring the measured effect to its halfway point. Read a high EC50 as lower potency in that assay. The molecule B1 displayed an EC50 in test [1] of 113 nM.

B2: R5 scFv (scFv)
scFv: ASQITLKESGPTLVKPTQTLTLTCSFSGFSLSFSGVGVAWIRQPPGKALEWLALIYWDDDKRYSPSLKSRLTITKDTSKNQVVLTMTNMDPLDTATYYCAHREWKAFGAFDIWGQGTMVTVSSGILGSGGGGSGGGGSGGGGSQPVLTQSPSASGTPGQRVTISCSGSSSNIGSNTVNWYQQLPGTAPKLLIYSNNQRPSGVPDRFSGSKSVTSASLAISGLQSEDEAEYYCATWDDSLNGAVFGGGTQLTVLSGILG
In test [2], B2 returned a 50% effective concentration (EC50) of 122 nM.
